B1: H17K: Nb4OMT variant with mutation H17K (protein)
chain: MGASIDDYSLVHKNILKSEDLLKYILETSAYPREHEQLKGLREVTEKHEWSSALVPADEGLFLSMLLKLMNAKRTIEIGVYTGYSLLTTALALPEDGKITAIDVNKSYYEIGLPFIQKAGVEHKINFIESEALPVLDQMLEEMKEEDLYDYAFVDADKSNYANYHERLVKLVRIGGAILYDNTLWYGSVAYPEYPGLHPEEEVARLSFRNLNTFLAADPRVEISQVSIGDGVTICRRLY
modifications: Description of sequence: Improved enzyme variant H17K
B2: H17R: Nb4OMT variant with mutation H17R (protein)
chain: MGASIDDYSLVHKNILRSEDLLKYILETSAYPREHEQLKGLREVTEKHEWSSALVPADEGLFLSMLLKLMNAKRTIEIGVYTGYSLLTTALALPEDGKITAIDVNKSYYEIGLPFIQKAGVEHKINFIESEALPVLDQMLEEMKEEDLYDYAFVDADKSNYANYHERLVKLVRIGGAILYDNTLWYGSVAYPEYPGLHPEEEVARLSFRNLNTFLAADPRVEISQVSIGDGVTICRRLY
modifications: Description of sequence: Improved enzyme variant H17R Mutation
B3: E36P-G40E: Nb4OMT variant with mutations E36P and G40E (protein)
chain: MGASIDDYSLVHKNILHSEDLLKYILETSAYPREHPQLKELREVTEKHEWSSALVPADEGLFLSMLLKLMNAKRTIEIGVYTGYSLLTTALALPEDGKITAIDVNKSYYEIGLPFIQKAGVEHKINFIESEALPVLDQMLEEMKEEDLYDYAFVDADKSNYANYHERLVKLVRIGGAILYDNTLWYGSVAYPEYPGLHPEEEVARLSFRNLNTFLAADPRVEISQVSIGDGVTICRRLY
modifications: Description of sequence: Improved enzyme variant E36P-G40E
B4: S159E: Nb4OMT variant with mutation S159E (protein)
chain: MGASIDDYSLVHKNILHSEDLLKYILETSAYPREHEQLKGLREVTEKHEWSSALVPADEGLFLSMLLKLMNAKRTIEIGVYTGYSLLTTALALPEDGKITAIDVNKSYYEIGLPFIQKAGVEHKINFIESEALPVLDQMLEEMKEEDLYDYAFVDADKENYANYHERLVKLVRIGGAILYDNTLWYGSVAYPEYPGLHPEEEVARLSFRNLNTFLAADPRVEISQVSIGDGVTICRRLY
modifications: Description of sequence: Improved enzyme variant S159E
B5: V203E: Nb4OMT variant with mutation V203E (protein)
chain: MGASIDDYSLVHKNILHSEDLLKYILETSAYPREHEQLKGLREVTEKHEWSSALVPADEGLFLSMLLKLMNAKRTIEIGVYTGYSLLTTALALPEDGKITAIDVNKSYYEIGLPFIQKAGVEHKINFIESEALPVLDQMLEEMKEEDLYDYAFVDADKSNYANYHERLVKLVRIGGAILYDNTLWYGSVAYPEYPGLHPEEEEARLSFRNLNTFLAADPRVEISQVSIGDGVTICRRLY
modifications: Description of sequence: Improved enzyme variant V203E
B6: A53R: Nb4OMT variant with substitution A53R, predicted without docking (protein)
chain: MGASIDDYSLVHKNILHSEDLLKYILETSAYPREHEQLKGLREVTEKHEWSSRLVPADEGLFLSMLLKLMNAKRTIEIGVYTGYSLLTTALALPEDGKITAIDVNKSYYEIGLPFIQKAGVEHKINFIESEALPVLDQMLEEMKEEDLYDYAFVDADKSNYANYHERLVKLVRIGGAILYDNTLWYGSVAYPEYPGLHPEEEVARLSFRNLNTFLAADPRVEISQVSIGDGVTICRRLY

A short description of the assay: Biosensor-linked O-methyltransferase activity assay. It counts as cell-based, Escherichia coli. Particulars: single mutational designs; 25, 30, 37 °C; 100 uM, 1 mM norbelladine. The procedure:
Nb4OMT was expressed with the P150-RBS (riboJ) promoter-RBS on the pReg-RamR plasmid backbone (no regulator present). Cells were co-transformed with both the 40MT plasmid and the 4NB reporter plasmid and plated on an LB agar plate containing appropriate antibiotics. Three individual colonies from each transformation were picked into LB and grown overnight. Resulting cultures were diluted 50-fold into 1 ml LB medium containing the indicated concentration of norbelladine in a 96-deep-well plate and were grown at the indicated temperature for 24 h. Subsequently, the fluorescence of cultures was measured in the same manner as previously described in Dose-response measurement above.
Take B1: the “fluorescent signal relative to the wild-type enzyme” value is given as “above wild-type in at least one tested condition”. As for B2, the “fluorescent signal relative to the wild-type enzyme” value is “above wild-type in at least one tested condition”. For B3 the value was “above wild-type in at least one tested condition”; for B4, “above wild-type in at least one tested condition”; for B5, “above wild-type in at least one tested condition”. In the case of B6, the “fluorescent signal relative to the wild-type enzyme” value is on record as “reduced activity under all tested conditions”.

These data come from patent US20240336900A1, “METHODS AND COMPOSITIONS RELATED TO MODIFIED METHYLTRANSFERASES AND ENGINEERED BIOSENSORS” (BOARD OF REGENTS, THE UNIVERSITY OF TEXAS SYSTEM, priority 2023, published 2024).
